Reference: patent US20220010008A1
Where “and” joins values, the source holds several entries; their conditions need not be identical. Equal values may be shown once. One block for each binder: values may come before it.

Columns and labels:
[1] = target: recombinant human IL-5 protein (human) (UniProt P05113); assay: SPR, human IL-5 immobilized on CM5 chip, chimeric antibody as analyte, 1:1 global fit
[2] = target: recombinant human IL-5 protein (human) (UniProt P05113); assay: SPR, human IL-5 immobilized on chip, 1:1 fit
[3] = target: recombinant human IL-5 protein (human) (UniProt P05113); assay: FACS, biotin-IL-5 bound to CHOK1 hIL-5Ra/CSF2RB cells with Ab 0.0004 nM
[4] = target: recombinant human IL-5 protein (human) (UniProt P05113); assay: FACS, biotin-IL-5 bound to CHOK1 hIL-5Ra/CSF2RB cells with Ab 0.0533 nM
[5] = target: recombinant human IL-5 protein (human) (UniProt P05113); assay: FACS, biotin-IL-5 bound to CHOK1 hIL-5Ra/CSF2RB cells with Ab 6.6667 nM
[6] = target: recombinant human IL-5 protein (human) (UniProt P05113); assay: FACS, biotin-IL-5 bound to CHOK1 hIL-5Ra/CSF2RB cells with Ab 1.3333 nM
[7] = target: recombinant human IL-5 protein (human) (UniProt P05113); assay: FACS, biotin-IL-5 bound to CHOK1 hIL-5Ra/CSF2RB cells with Ab 33.3333 nM
[8] = target: recombinant human IL-5 protein (human) (UniProt P05113); assay: cell-based or functional assay
[9] = target: recombinant human IL-5 protein (human) (UniProt P05113); assay: FACS, biotin-IL-5 bound to CHOK1 hIL-5Ra/CSF2RB cells with Ab 0.0107 nM
[10] = target: recombinant human IL-5 protein (human) (UniProt P05113); assay: FACS, biotin-IL-5 bound to CHOK1 hIL-5Ra/CSF2RB cells with Ab 0.2667 nM
[11] = target: recombinant human IL-5 protein (human) (UniProt P05113); assay: FACS, biotin-IL-5 bound to CHOK1 hIL-5Ra/CSF2RB cells with Ab 0.0021 nM

B1: 69F2F3 mouse-human chimeric antibody (antibody, human IgG4, V domains shown)
VH: QVQLKQSGPGLVQPSQSLSITCTVSGFSLSNYGVHWVRQSPGKGLEWLGVIWSGGSTDYNAAFKSRLSITKDNSKSQVVFRMNSLQTDDTATYYCARNKDFLDYWGQGTKFTVSS
VL: DIVMTQSPSSLTVTAGEKVTMTCKSSQGLLNSGNQKNYLTWYQQKPGQPPKLLIYWASTRESGVPDRFTGSGSGTDFTLTISSVQAEDLAVYYCQNDYHFPLTFGAGTKLELK
- Kd [1]: < 0.12 nM
- koff [1]: < 1e-05 s⁻¹
- kon [1]: 81900 M⁻¹ s⁻¹

B2: 102A2E11B6 (murine hybridoma lead antibody) (antibody, V domains shown)
VH: QVQLRQSGPGLVQPSQSLSITCTVSGFSLTSYGVHWVRQSPGKGLEWLGVIWSGGSTDYNAVFMSRLSISKDSSKSQVFFKMNSLQTDDTAIYYCARNRYVLDYWGQGTSVTVSS
VL: DIVMTQSPSSLSVSAGERVTMRCKSSQSLLTSGDQKNHLAWYQQKPGQPPKLLIYGASTRESGVPDRFTGSGSGTDFTLTITSVQAEDLAVYYCQNDHSFPLTFGAGTKLELK
- Kd [2]: 0.063 nM
- koff [2]: 2.32e-05 s⁻¹
- kon [2]: 369000 M⁻¹ s⁻¹

Further lines, results first:

- Kd [1]: 0.221 nM
- koff [1]: 2.73e-05 s⁻¹
- kon [1]: 124000 M⁻¹ s⁻¹
B3: 102A2E11B6 mouse-human chimeric antibody (antibody, human IgG4, V domains shown)
VH: QVQLRQSGPGLVQPSQSLSITCTVSGFSLTSYGVHWVRQSPGKGLEWLGVIWSGGSTDYNAVFMSRLSISKDSSKSQVFFKMNSLQTDDTAIYYCARNRYVLDYWGQGTSVTVSS
VL: DIVMTQSPSSLSVSAGERVTMRCKSSQSLLTSGDQKNHLAWYQQKPGQPPKLLIYGASTRESGVPDRFTGSGSGTDFTLTITSVQAEDLAVYYCQNDHSFPLTFGAGTKLELK

- Fluorescence intensity [3]: 90
- Fluorescence intensity [4]: 92
- Fluorescence intensity [5]: 43
- Fluorescence intensity [6]: 66
- Fluorescence intensity [7]: 34
- RLU, CTLL-2 cell proliferation stimulated by IL-5, Ab conc. 0.000170667 nM [8]: 57900 RLU and 56300 RLU
- RLU, CTLL-2 cell proliferation stimulated by IL-5, Ab conc. 0.000853333 nM [8]: 64800 RLU and 54500 RLU
- RLU, CTLL-2 cell proliferation stimulated by IL-5, Ab conc. 0.004266667 nM [8]: 64200 RLU and 64300 RLU
- RLU, CTLL-2 cell proliferation stimulated by IL-5, Ab conc. 0.02133333 nM [8]: 56900 RLU and 52300 RLU
- RLU, CTLL-2 cell proliferation stimulated by IL-5, Ab conc. 0.1066667 nM [8]: 36100 RLU and 30000 RLU
- RLU, CTLL-2 cell proliferation stimulated by IL-5, Ab conc. 0.5333334 nM [8]: 21500 RLU and 20200 RLU
- RLU, CTLL-2 cell proliferation stimulated by IL-5, Ab conc. 2.666667 nM [8]: 19700 RLU and 17100 RLU
- RLU, CTLL-2 cell proliferation stimulated by IL-5, Ab conc. 13.33333 nM [8]: 16200 RLU and 14700 RLU
- RLU, CTLL-2 cell proliferation stimulated by IL-5, Ab conc. 66.66666 nM [8]: 11500 RLU and 10900 RLU
- RLU, CTLL-2 cell proliferation stimulated by IL-5, Ab conc. 3.41333E-05 nM [8]: 58700 RLU and 61300 RLU
- RLU, TF-1 cell proliferation stimulated by IL-5, Ab conc. 0.00001 nM [8]: 108000 RLU and 113000 RLU
- RLU, TF-1 cell proliferation stimulated by IL-5, Ab conc. 0.00003 nM [8]: 110000 RLU and 115000 RLU
- RLU, TF-1 cell proliferation stimulated by IL-5, Ab conc. 0.00017 nM [8]: 114000 RLU and 108000 RLU
- RLU, TF-1 cell proliferation stimulated by IL-5, Ab conc. 0.00085 nM [8]: 99300 RLU and 103000 RLU
- RLU, TF-1 cell proliferation stimulated by IL-5, Ab conc. 0.00427 nM [8]: 76100 RLU and 79700 RLU
- RLU, TF-1 cell proliferation stimulated by IL-5, Ab conc. 0.02133 nM [8]: 54800 RLU and 57500 RLU
- RLU, TF-1 cell proliferation stimulated by IL-5, Ab conc. 0.10667 nM [8]: 42100 RLU and 51500 RLU
- RLU, TF-1 cell proliferation stimulated by IL-5, Ab conc. 0.53333 nM [8]: 40600 RLU and 42300 RLU
- RLU, TF-1 cell proliferation stimulated by IL-5, Ab conc. 2.66667 nM [8]: 34500 RLU and 42000 RLU
- RLU, TF-1 cell proliferation stimulated by IL-5, Ab conc. 13.33333 nM [8]: 33800 RLU and 35300 RLU
- Fluorescence intensity [9]: 91
- Fluorescence intensity [10]: 86
- Kd [2]: 0.158 nM
- koff [2]: 6.65e-05 s⁻¹
- kon [2]: 422000 M⁻¹ s⁻¹
- Fluorescence intensity [11]: 91
B4: 154F10G8 (murine hybridoma lead antibody) (antibody, V domains shown)
VH: QVQLQQPGAELVKPGASVKLSCKASGYTFTSYWITWVKQRPGQGLEWIGDIYPGSGSTFYNEKFKSEATLTVDTSSSTAYMQLSSLTSEDSAVFYCSTETTLGYWGQGTTLTVSS
VL: DVLMTQTPLSLPVSLGDQASISCRSSQSIVHNNGNTYLEWYLQKPGQSPKLLIYKVSNRFSGVPDRFSGSGSGTDFTLKISRVEAEDLGVYYCFQGSHVPFTFGSGTKLEIK
